Test results from the supplement of paper PMC9170038.

Tested on: MS2 coat protein
Test: apparent KD of MS2 coat protein; designed switch direction (-1 OFF switch, 1 ON switch): 1; higher = weaker reporter binding
Procedure, shortened: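 Stalled E. coli RNA polymerase transcribed designed RNA switches on Illumina chips, which were then titrated with SNAP-549-labelled MS2 coat protein, doubling from 0.7 or 1.5 nM to 3 µM. Steps lasted from 0.8–1.5 h at the lowest concentration to 10–20 min at the highest. The apparent KD is each design's median over clusters of curve-fitted normalised fluorescence.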

[1] = input ligand: microRNA oligo, concentration not stated
[2] = Eterna round: R95, input ligand: FMN 200 uM
[3] = Eterna round: R95, input ligand: microRNA oligo, concentration not stated
[4] = Eterna round: R95, input ligand: none

Sequence	apparent KD of MS2 coat protein (input ligand: FMN 200 uM) [nM]	apparent KD of MS2 coat protein [1] [nM]	apparent KD of MS2 coat protein (input ligand: none) [nM]	apparent KD of MS2 coat protein [2] [nM]	apparent KD of MS2 coat protein [3] [nM]	apparent KD of MS2 coat protein [4] [nM]
GAGGGCGAAAGCGACAUGAGGAUCACCCAUGUCCUCGGAGGACAGGAUAUCCGGCAAAAGCCGAAGGAGAAGGGUCGAAAAGAA [AK SSNG3-V2-37] (Eterna round: R96, puzzle: Same State NG 3)	47.2	69.7	136	–	–	–
GAGUAGUUGAUAGGAUAUUGAUUGUUGUAGGAUCAAGAAGGAUCUAACAUGAGGAUCACCCAUGUAGGACUAUUCCUGUGUAUC [Parity 85 - Jieux - Same State NG 1] (Eterna round: R96, puzzle: Same State NG 1)	18.6	13.7	21.4	–	–	–
GAGUGGAGGUAAGGAUAUACAAUGAUAAUCACAGUAGAAGGUACUAACAUGAGGAUCACCCAUGUAGGACUAUACCAGAGAGGG [Parity 39 - Jieux - Same State NG 1] (Eterna round: R96, puzzle: Same State NG 1)	–	13	–	–	–	–
GAGUGGCAGUUAGGAUAUAUAGUGAUAAUCACAGUAGAAGGAACUGACAUGAGGAUCACCCAUGUAGGACUAAUCCAGAGAGAG [Parity 41 - Jieux - Same State NG 1] (Eterna round: R96, puzzle: Same State NG 1)	65.7	29.8	44.2	–	–	–
GAGUGGUGGAGAGGAUAUACAUUGUUAUUCACUGUAGAAGGUUCUAACAUGAGGAUCACCCAUGUAGGACUAUUCCUGAGUUUU [Parity 56 - Jieux - Same State NG 1] (Eterna round: R96, puzzle: Same State NG 1)	–	8.92	–	–	–	–
GAUAGACAUGAGGAUCACCCAUGUGACAAAACCACAGGAUAUCAUGCAGGCGUAACUGCAUGAGAAGGGUGAGACU [Quanve] (puzzle: Same State 1)	–	–	–	61.1	20.6	35.8
GCAAAGGCGGUAGGAUAUCUAGGAUAUGGGAAAGACUAAGUCUGUAGGUCACCUAACCCAGAAGGAGAGAAGGACACCGAAAGG [pwkr ssNG2 2FMN + F9.25] (Eterna round: R96, puzzle: Same State NG 2)	617	9.18	73.7	–	–	–
GCAUCACAUGAGGAUCACCCAUGUCUUCGGAGCCGAGGAUAUGGUCACUGUAAACAGUGGCCAGAAGGCGGGAUGC [SS1 - Son of Teenbexe v1] (puzzle: Same State 1)	–	–	–	30.2	41.5	61.3
GCCAACUCAUGAGGAUAUGGCACCUUAUUGGUGCCAGAAGGCAUGUCUAUUGACAUGAGGAUCACCCAUGUAUUAUAGUUGGCA [Fiskers NG1ss - 23] (Eterna round: R96, puzzle: Same State NG 1)	83.9	192	859	–	–	–
GCCAACUCAUGAGGAUAUGGCACCUUAUUGGUGCCAGAAGGCAUGUCUAUUGACAUGAGGAUCACCCAUGUAUUAUUGUUGGCA [Fiskers NG1ss - 24] (Eterna round: R96, puzzle: Same State NG 1)	80	717	893	–	–	–
GCCCGACUCACAGGAUAUGUACCGCCCGAAACAACAGAAGGGUGAGAUCCGGCAUGCACUGACAUGAGGAUCACCCAUGUCCUU [Gebege] (Eterna round: R96, puzzle: Same State NG 1)	520	311	765	–	–	–
GCCGCACAUGAGGAUCACCCAUGUAAUUACAUGGGAGGAUAUCAGUGCUCGAAAGAGCACUGAGAAGGCCUAAGGC [SS1 - Omei A] (puzzle: Same State 1)	–	–	–	419	32.4	20.8
GCCGCGUUUCGCGCCUACAUGAGGAUCACCCAUGUUUGUAGGCAGGAUAUCGUCCGCUCUGCGGGCGAGAAGGGCUGUUGUGGC [salish99_SSNG3_R04_022] (Eterna round: R96, puzzle: Same State NG 3)	41.2	36.7	51.5	–	–	–
GCCGCGUUUCGCGCCUACAUGAGGAUCACCCAUGUUUGUGGGCAGGAUAUCGUCCGCUCUGCGGGCGAGAAGGGCUGUUGUGGG [salish99_SSNG3_R04_024] (Eterna round: R96, puzzle: Same State NG 3)	231	159	215	–	–	–
GCGAGCGUACUUGCUACAUGAGGAUCACCCAUGUUCGUUGGACAGGAUAUGGUACCGUUUCGGUACCAGAAGGGUUCACAUGUA [JL SSNG3 3.77] (Eterna round: R96, puzzle: Same State NG 3)	171	224	375	–	–	–
GCGCUACAUGAGGAUCACCCAUGUGCGAACGCACGAGGAUAUGCAUGGGCUAAUGCUGGUGCAGAAGGCGUGGCGC [Pin2Pin #8] (puzzle: Same State 1)	–	–	–	–	23.8	–
GCGGUAACUCACAUGAGGAUCACCCAUGUUCCGGAAACGGCACAGGAUAUCUGUCCGAAAAGGUCAGAGAAGGGUGAAAUCCGC [Fiskers NG3ss - 91] (Eterna round: R96, puzzle: Same State NG 3)	641	290	115	–	–	–
GCGUUUAACGUAGGAUAUCGACCUACAUGAGGAUCACCCAUGUCUUUGUAUAGUUUUUUUUGUUACGAGAAGGACGUUUUGCAU [JR_SSNG2_Sub070] (Eterna round: R96, puzzle: Same State NG 2)	75.1	95.2	122	–	–	–
GCGUUUAACGUAGGAUAUCGAGCUACAUGAGGAUCACCCAUGUCUUUGUAAAGUUUUUUUAAUUACGAGAAGGACGUUUUGCAU [JR_SSNG2_Sub072] (Eterna round: R96, puzzle: Same State NG 2)	18.7	26.7	35.8	–	–	–
GCUACAUGAGGAUCACCCAUGUGUGCGUGGGAGUGAGUGGCUUAGGAUAUCUAUGACUUGAGUUGAGAGAAGGAGGGUUGCUGU [SS-NG3-LRO13] (Eterna round: R96, puzzle: Same State NG 3)	70.9	53.6	79.3	–	–	–
GCUACAUGAGGAUCACCCAUGUGUGCGUGGGAGUGAGUGGCUUAGGAUAUCUAUGAUUUUAGUUGAGAGAAGGAGGAUUGCUGU [SS-NG3-LRO10] (Eterna round: R96, puzzle: Same State NG 3)	193	140	175	–	–	–
GCUACCAAAGAAGCCUACAUGAGGAUCACCCAUGUAUGUAGGCAGGAUAUCGAUUGCAAAGCGAUCGAGAAGGGCUUAGGUAGC [Mat - Same State NG 3 - JL Mod - D92] (Eterna round: R96, puzzle: Same State NG 3)	68.9	116	152	–	–	–
GCUACCAUUGAAGCCAACAUGAGGAUCACCCAUGUAUGUUGGCAGGAUAUCGAUUGCUUUGCGAUCGAGAAGGGCUAAGGUAGC [JL SSNG3 1.29] (Eterna round: R96, puzzle: Same State NG 3)	120	153	171	–	–	–
